In US20060258000A1, “Use of steady-state oxygen gradients to modulate animal cell functions” (priority 2003, published 2006):

What was measured:
[1] = tested on: CYP3A
[2] = tested on: CYP2B
Procedure: Primary rat hepatocytes from 6-well plates or chamber slides were lysed and scraped in SDS buffered (10 mM Tris/HCl (ph 7.4), 0.1% SDS). Samples were added to microcentrifuge tubes with 5 μl of PMSF, homogenized with a pestle, and centrifuged at 16,200 g for 5 minutes. Total protein content in the supernatant was determined using the DC protein assay (Bio-Rad, Hercules, Calif.) and used to normalize sample loading. Samples prepared in sample buffer were loaded (10-20 μg/well) for electrophoresis on a 10% polyacrylamide gel. After overnight transfer on to a PVDF membrane, blots were incubated with a blocking buffered (20 mM Tris-Cl (pH 7.4), 500 mM NaCl, 0.1% Tween 20, and 5% (w/v) milk powder) and washed with buffer without milk powder, incubation for 1 h with primary antibody against rat PEPCK or rat CYP2B (Genset, Woburn, Mass.) was followed by washing and incubation with either anti-sheep (PEPCK) or anti-goat (CYP2B) HRP-conjugated secondary antibody for 45 minutes. After washing, the Pierce SuperSignal chemiluminescence reagent was used for detection. All electrophoresis gels were run with molecular mass markers to verify PEPCK bands (67 kDa) or CYP2B1/2 bands (56 kDa). Optical density measurements were obtained using scanned blot images with 1d gelscan software (Metamorph).

B1: epidermal growth factor (protein, UniProt P01133 23-1207, looked up)
Pro-epidermal growth factor: PQHWSCPEGTLAGNGNSTCVGPAPFLIFSHGNSIFRIDTEGTNYEQLVVDAGVSVIMDFHYNEKRIYWVDLERQLLQRVFLNGSRQERVCNIEKNVSGMAINWINEEVIWSNQQEGIITVTDMKGNNSHILLSALKYPANVAVDPVERFIFWSSEVAGSLYRADLDGVGVKALLETSEKITAVSLDVLDKRLFWIQYNREGSNSLICSCDYDGGSVHISKHPTQHNLFAMSLFGDRIFYSTWKMKTIWIANKHTGKDMVRINLHSSFVPLGELKVVHPLAQPKAEDDTWEPEQKLCKLRKGNCSSTVCGQDLQSHLCMCAEGYALSRDRKYCEDVNECAFWNHGCTLGCKNTPGSYYCTCPVGFVLLPDGKRCHQLVSCPRNVSECSHDCVLTSEGPLCFCPEGSVLERDGKTCSGCSSPDNGGCSQLCVPLSPVSWECDCFPGYDLQLDEKSCAASGPQPFLLFANSQDIRHMHFDGTDYGTLLSQQMGMVYALDHDPVENKIYFAHTALKWIERANMDGSQRERLIEEGVDVPEGLAVDWIGRRFYWTDRGKSLIGRSDLNGKRSKIITKENISQPRGIAVHPMAKRLFWTDTGINPRIESSSLQGLGRLVIASSDLIWPSGITIDFLTDKLYWCDAKQSVIEMANLDGSKRRRLTQNDVGHPFAVAVFEDYVWFSDWAMPSVMRVNKRTGKDRVRLQGSMLKPSSLVVVHPLAKPGADPCLYQNGGCEHICKKRLGTAWCSCREGFMKASDGKTCLALDGHQLLAGGEVDLKNQVTPLDILSKTRVSEDNITESQHMLVAEIMVSDQDDCAPVGCSMYARCISEGEDATCQCLKGFAGDGKLCSDIDECEMGVPVCPPASSKCINTEGGYVCRCSEGYQGDGIHCLDIDECQLGEHSCGENASCTNTEGGYTCMCAGRLSEPGLICPDSTPPPHLREDDHHYSVRNSDSECPLSHDGYCLHDGVCMYIEALDKYACNCVVGYIGERCQYRDLKWWELRHAGHGQQQKVIVVAVCVVVLVMLLLLSLWGAHYYRTQKLLSKNPKNPYEESSRDVRSRRPADTEDGMSSCPQPWFVVIKEHQDLKNGGQPVAGEDGQAADGSMQPTSWRQEPQLCGMGTEQGCWIPVSSDKGSCPQVMERSFHMPSYGTQTLEGGVEKPHSLLSANPLWQQRALDPPHQMELTQ
modifications: Pro-epidermal growth factor
Effect of EGF on DEX-induced CYP3A induction [1]: remained uniform | Effect of EGF on DEX-induced CYP2B spatial distribution [2]: significant shift in CYP2B spatial distribution was noted from inlet regions to the outlet
